The values below come from publication PMC2173958.

Test [1] has as its target GST fusion 4b of Sfi1p (676–710) (S. cerevisiae) (UniProt Q12369). Kind of test: pull-down.
In test [2] the target is GST fusion 2c of Sfi1p (279–386) (S. cerevisiae) (UniProt Q12369). Kind of test: pull-down.
In test [3] the target is GST fusion 2b of Sfi1p (246–281) (S. cerevisiae) (UniProt Q12369). Kind of test: pull-down.
Test [4] has as its target GST fusion 3a of Sfi1p (451–474) (S. cerevisiae) (UniProt Q12369). Kind of test: pull-down.
Test [5] addresses GST fusion 4a of Sfi1p (643–677) (S. cerevisiae) (UniProt Q12369). Nature of the test: pull-down.
The target of test [6] is Sfi1p-prA (S. cerevisiae) (UniProt Q12369). Nature of the test: affinity purification with mass spectrometry.

UniProt Q12369, sequence (Q12369 whole entry, the tested form may be a part): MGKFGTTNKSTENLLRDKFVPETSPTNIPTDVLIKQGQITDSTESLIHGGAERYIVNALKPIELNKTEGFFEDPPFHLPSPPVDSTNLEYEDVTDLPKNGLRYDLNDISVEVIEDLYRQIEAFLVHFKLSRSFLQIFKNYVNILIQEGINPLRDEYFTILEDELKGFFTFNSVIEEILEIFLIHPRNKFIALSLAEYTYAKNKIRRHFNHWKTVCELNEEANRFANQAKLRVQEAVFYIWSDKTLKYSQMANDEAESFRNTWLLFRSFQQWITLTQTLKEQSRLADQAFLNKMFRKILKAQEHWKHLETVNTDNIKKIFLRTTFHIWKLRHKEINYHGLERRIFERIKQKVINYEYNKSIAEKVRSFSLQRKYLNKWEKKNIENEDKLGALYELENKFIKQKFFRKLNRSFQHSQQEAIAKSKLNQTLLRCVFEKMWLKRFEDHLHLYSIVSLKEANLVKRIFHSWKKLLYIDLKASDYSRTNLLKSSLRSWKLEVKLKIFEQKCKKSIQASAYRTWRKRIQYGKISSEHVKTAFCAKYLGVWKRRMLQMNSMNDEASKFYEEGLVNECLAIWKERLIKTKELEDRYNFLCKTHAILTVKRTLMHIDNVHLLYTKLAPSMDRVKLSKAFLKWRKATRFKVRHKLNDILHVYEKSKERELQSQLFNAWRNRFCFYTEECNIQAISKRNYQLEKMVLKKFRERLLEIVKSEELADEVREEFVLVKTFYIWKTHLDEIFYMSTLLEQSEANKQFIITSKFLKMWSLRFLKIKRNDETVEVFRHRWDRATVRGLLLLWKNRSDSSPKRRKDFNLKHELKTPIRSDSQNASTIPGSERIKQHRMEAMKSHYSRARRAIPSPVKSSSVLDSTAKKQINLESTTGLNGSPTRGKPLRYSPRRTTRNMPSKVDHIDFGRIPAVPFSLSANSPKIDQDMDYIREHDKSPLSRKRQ

Usually stoichiometry N stands for the number of molecules, sites or subunits per partner or assembly. In the case of “recombinant Cdc31p (from UniProt P06704 2-161) (natural protein)”, the stoichiometry N in test [1], in test [3], in test [4] and in test [5] was below 1.1 throughout. In test [2], the molar ratio of Cdc31p to fusion (gel scan, not at saturation) is 1.1.

B1: Cdc31p (natural protein)
chain: MSKNRSSLQSGPLNSELLEEQKQEIYEAFSLFDMNNDGFLDYHELKVAMKALGFELPKREILDLIDEYDSEGRHLMKYDDFYIVMGEKILKRDPLDEIKRAFQLFDDDHTGKISIKNLRRVAKELGETLTDEELRAMIEEFDLDGDGEINENEFIAICTDS
Regarding B1, the molar ratio of Cdc31p to Sfi1p-prA (inspection of Coomassie-stained bands) in test [6] was above 1.
